{"source": "paper PMC9307851", "binders": {"B1": {"name": "24-mer DNA duplex (GAC)8 (dsDNA)", "DNA 1": "GACGACGACGACGACGACGACGAC", "DNA 2": "GTCGTCGTCGTCGTCGTCGTCGTC"}}, "key": {"[1]": {"molecular_target": "DNMT3B MTase domain L664P (human, UniProt Q9UBC3 569-853, L664P)", "test": "ITC; 5 C; N.M. (not measurable); text says much reduced; ITC: 20 mM Tris-HCl pH 7.2, 200 mM NaCl, 5% glycerol, 2 mM b-mercaptoethanol, 5 C; EMSA: 50 mM Tris-HCl pH 8.0, 25% glycerol, 8% glucose, 2 mM DTT, 0.1 mg/mL BSA, 30 min, gel in 0.5x TBE at 4 C", "conditions": "protein: recombinant; tags: His6-MBP removed by TEV; (only upper strand given)"}, "[2]": {"molecular_target": "DNMT3B MTase domain R670Q (human, UniProt Q9UBC3 569-853, R670Q)", "test": "ITC; 5 C; N fixed at 0.5; ITC: 20 mM Tris-HCl pH 7.2, 200 mM NaCl, 5% glycerol, 2 mM b-mercaptoethanol, 5 C; EMSA: 50 mM Tris-HCl pH 8.0, 25% glycerol, 8% glucose, 2 mM DTT, 0.1 mg/mL BSA, 30 min, gel in 0.5x TBE at 4 C", "conditions": "protein: recombinant; tags: His6-MBP removed by TEV; (only upper strand given)"}}, "data": [{"binder": "B1", "values": [{"measurement": "binding result", "setting": "[1]", "value": "no binding"}, {"measurement": "Kd", "setting": "[2]", "value": "24.4 ± 4.4", "unit": "µM"}]}]}
